Data reported in article PMC10786315 (Proceedings of the National Academy of Sciences of the …, 2024).

Target: the molecule itself
Assay: SEC

B1: LctR (LctP Regulator, CJ1608) (natural protein, C. jejuni, UniProt Q0P820 1-295, looked up)
chain: MKVLIIENEIYLAQSISIKLSDAGYSCEIINSFDEYNGEKYYDIILLSTNTNNFLKAVGQFKHSIIILLISYISTDTVSNPLKLGASDYIQKPFMIEELIRKIKHYQDFRKLSILNKAYQSYIKSRLETIKIPEYNYKKLKLPLILKSNKQSSADAFVFNYANECDITLSFIDLTSTNSVEKVMKLPTENNLLFLSNFQALKAAEKEKLLDFIQNKNVILHTNSNTDDLKINCINLNDNEKNINSNEILTIDEYVKYVIINYQNIFPDTDLSKKLGISRKSLWEKRKKYEISKKK
In the case of B1, the “stoichiometry N” value is reported as 2.
